Measurements taken from patent publication US9969998B2, “Compositions of adenosine deaminase-2 (ADA2), variants thereof and methods of using same” (Halozyme, Inc., priority 2014, dated 2018).

Legend:
[1] = tested on: MH194+PSC4 pancreatic tumor; assay: Tumor growth inhibition and survival, MH194+PSC4 syngeneic tumor model; assay type: in vivo, C57BL/6 mice; conditions: for Tumor Growth Inhibition: vs vehicle; for Increase in MST: vs vehicle (MST 27 days)
Procedure: The murine MH194+PSC4 syngeneic tumor model was used to assess the antitumor efficacy of PEGylated a recombinant adenosine deaminase 2 (ADA2), PEGylated rHuADA2-R222Q/S265N (PEG-R222Q/S265N; PEG-R219Q/S262N by mature numbering).
The PSC4 cells are isolated and immortalized pancreatic stellate cells. To generate the PSC4 cells, pancreas from C57BL/6 mice were minced with razor blades and placed in 2 mL of a digestion buffer containing 0.05% collagenase P, 0.1% DNAse, and 0.02% Pronase in Gey's balanced salt solution (GBSS). Following two 15 min digestion incubations at 37° C. with thorough mixing after each incubation, the resulting cell suspension was filtered through a 100 μm nylon mesh, washed twice in GBSS with 0.3% bovine serum albumin (BSA), and resuspended in 10 mL GBSS/BSA. Eight mL of Histodenz (Sigma, Cat. No. D2158) was added to the cell suspension, and the entire volume was pipetted under 6 mL GBSS/BSA in order to generate a discontinuous density gradient. Following centrifugation for 20 min at 1,400 g with the brake set at zero, the desired cells were harvested from the interface between the two density volumes and washed once with PBS and once with DMEM medium supplemented with 2 mM L-glutamine, 10% fetal bovine serum, and 1% amphotericin-B (complete DMEM). Cells were immortalized using Lenti-SV40 (Capital Biosciences, Cat. No. CIP-0011) using manufacturer's protocol. The resulting cell line, designated PSC4, were maintained in tissue culture as an adherent monolayer in complete DMEM at 37° C. and 5% CO2. The MH194 mouse pancreatic carcinoma cells are derived from the KrasLSL.G12D/+p53R172H/+PdxCretg/+ genetically engineered mouse model. […]
Thirty-nine (39) male C57BL/6 mice were co-inoculated subcutaneously with 5×10^6 of a mixture of murine MH194 pancreatic cancer tumor cells and murine PSC4 pancreatic stellate cells in 0.1 mL injection volume per animal. Tumor volume was determined using digital calipers via measurement of length (L) and width (W) of the solid tumor masses. Tumor volume (TV) was calculated as: (L×W^2)/2. Tumors were allowed to grow and tumor bearing mice were staged for test article administration when the tumors were palpable and measured to be approximately 50-100 mm^3.
PEG-R222Q/S265N was prepared using similar methods as described in Example 8.A, with minor modifications to generate a preparation in which approximately 100% of the molecules were PEGylated as assessed by SDS-PAGE.
For treatment, MH194+PSC4 tumor bearing mice were randomized into five treatment groups (n=≤8); vehicle control (buffer only) or PEG-R222Q/S265N at four treatment doses. MH194+PSC4 tumor bearing mice were then injected intravenously (IV) every other day, at 0.003 mg/kg body weight, 0.03 mg/kg body weight, 0.3 mg/kg body weight and 3 mg/kg body weight of PEG-R222Q/S265N, or vehicle. […] Median survival time (MST) (in days) was calculated as the time at which 50% of the mice of the individual groups reached one of the following endpoints: (1) tumor volume reaches 2000 mm^3, (2) the animal loses >25% of its body weight, or (3) the animal appears moribund.

[2] = In vivo pharmacokinetics of PEGylated rHuADA2 combination variants (Example 14); conditions: 3 mg/kg intravenous
Source text: (§1) Twenty-seven (27) male BALB/c mice were divided into three (3) dosing groups, and were further divided into three (3) groups each for sampling of blood at different time points. Thus, the mice were randomized into nine (9) groups total. Mice were weighed prior to the start of the study, and randomized into the 9 groups based upon their body weights. In each sampling group, three groups of (3) mice were used for dosing each test article to prevent oversampling of the blood from the animals. For measurement of baseline ADA2 levels, a blood sample was obtained from 12 randomly chosen mice and plasma was prepared using the anti-coagulant potassium (K3) ethylene diamine tetraacetic acid (K3-EDTA). All blood was collected by submandibular venipuncture.
(§2) PEGylated ADA2 variants were prepared using the PEGylation method as described in Example 8.A, with minor modifications. Briefly, all ADA2 variants at 10 mg/mL were PEGylated with linear PEG-20K (JenKem Technology, Plano, Tex.; Cat. No. M-SCM-20K) at 1:15 molar ratio and incubated first at 37° for 30 min, then at 4° C. for 16 hours.
(§3) Approximately 200 μL of whole blood was collected at designated sampling time points from appropriate groups of mice as indicated below in Table 38 and kept on ice until plasma preparation. The initial two (2) blood samples were collected by submandibular venipuncture. The final sample was collected from a terminal bleed. Plasma was prepared by centrifuging the blood (500×g for 5 min at 4° C.), transferring the plasma to a fresh tube and immediately freezing at −80° C. until the adenosine deaminase activity assay. Adenosine deaminase activity was determined as described in Example 4.
(§4) Non-compartmental analysis (NCA) was conducted using the Phoenix WinNonlin version 6.3 (Pharsight Corp, St. Louis, Mo. 63101). The half-life, or time taken for the activity of ADA2 proteins to be reduced by half, was calculated. Also, total exposure was measured by calculating the Area Under the Concentration-time Curve (AUC). The AUC and half-life values were obtained from the unweighted average from each test article group. The following options in the Phoenix WinNonlin program were used for data analysis: (i) linear trapezoidal/linear interpolation option for AUC; (ii) best-fit slope selection option for terminal slope; and (iii) uniform weighting of the data.

[3] = mouse, in vivo, iv, 3 mg/kg
Source text: as §1, §2, §3, §4

[4] = Heparin binding ELISA (immobilized heparin); conditions: Example 8
Procedure: Heparin binding of a protein, such as any ADA2 provided herein, can also be assessed using enzyme-linked immunosorbant assay (ELISA) based methods. ELISA-based methods use heparin immobilized on a surface, such as a microtiter plate. The protein of interest which binds to heparin, such as any ADA2 provided herein, is incubated in the heparin coated plate, and binding is detected using antibodies that detect the protein of interest, such as any ADA2 provided herein.
For example, a 96-well plate coated with 100 μL of 200 μg/mL heparin sodium salt (Calibochem, EMD Milipore, Billerica, Mass.; Cat. No. 375095) in Na2CO3 buffer (pH 9.6) can be used to test ADA2 binding to heparin. […] The optical density (OD) of each reaction is measured on a plate reader.
In another example, heparin is immobilized by incubating Streptavidin-coated microtiter plates, such as the Streptavidin-coated 96-well plate (Thermo Fisher Scientific, Rockford, Ill.; Cat. No. 15520), with biotinylated heparin, such as biotin-heparin (Sigma-Aldrich, St. Louis, Mo.; Cat No. B9806-10MG). […] The optical density (OD) of each reaction is measured on a plate reader. […]

[5] = 0.003 mg/kg IV every other day, day 11
[6] = 0.03 mg/kg IV every other day, day 11
[7] = 0.3 mg/kg IV every other day, day 11
[8] = 3 mg/kg IV every other day, day 11
[9] = day 11, 0.003 mg/kg IV every other day
[10] = male BALB/c mice, WT from Example 9

B1: PEG-R222Q/S265N: rHuADA2-R222Q/S265N (SEQ ID NO:273) PEGylated with linear PEG-20K (conjugate)
chain: IDETRAHLLLKEKMMRLGGRLVLNTKEELANERLMTLKIAEMKEAMRTLIFPPSMHFFQAKHLIERSQVFNILRMMPKGAALHLHDIGIVTMDWLVRNVTYRPHCHICFTPRGIMQFRFAHPTPRPSEKCSKWILLEDYRKRVQNVTEFDDSLLRNFTLVTQHPEVIYTNQNVVWSKFETIFFTISGLIHYAPVFRDYVFRSMQEFYEDNVLYMEIRAQLLPVYELSGEHHDEEWSVKTYQEVAQKFVETHPEFIGIKIIYNDHRSKDVAVIAESIRMAMGLRIKFPTVVAGFDLVGHEDTGHSLHDYKEALMIPAKDGVKLPYFFHAGETDWQGTSIDRNILDALMLNTTRIGHGFALSKHPAVRTYSWKKDIPIEVCPISNQVLKLVSDLRNHPVATLMATGHPMVISSDDPAMFGAKGLSYDFYEVFMGIGGMKADLRTLKQLAMNSIKYSTLLESEKNTFMEIWKKRWDKFIADVATK
modifications: linear PEG-20K; human ADA2 R219Q/S262N, mature numbering
[1]; 0.003 mg/kg IV every other day
  MST (median survival time): 46 days
  Increase in MST: 70%
[1]; [5]
  Average Tumor Volume: 323.9 mm^3
  Tumor Growth Inhibition: 72%
[1]; 0.003 mg/kg dose
  median survival time (MST): 46 days
  mice that survived beyond 41 days: Five out of eight
[1]; 0.03 mg/kg IV every other day
  MST (median survival time): 26 days
  Increase in MST: 0%
[1]; [6]
  Average Tumor Volume: 680.45 mm^3
  Tumor Growth Inhibition: 21%
[1]; 0.3 mg/kg IV every other day
  MST (median survival time): 32.5 days
  Survival time: 13 to 41 days
  Increase in MST: 20%
[1]; [7]
  Average Tumor Volume: 700.59 mm^3
  Tumor Growth Inhibition: 20%
[1]; 3 mg/kg IV every other day
  MST (median survival time): 23.5 days
  Increase in MST: 0%
[1]; [8]
  Average Tumor Volume: 678.58 mm^3
  Tumor Growth Inhibition: 22%
[1]; [9]
  Average Tumor Volume: approximately 324 mm^3
  tumor growth inhibition (TGI): approximately 72%
[2]; BALB/c mice, plasma ADA activity
  AUC (total exposure): 16,330 (U * h)/mL
[2]; BALB/c mice, vs non-PEGylated WT rHuADA2 of Example 9
  Percent increase in AUC compared to WT ADA2: 49,661%
[2]; [10]
  AUC higher than the non-PEGylated WT rHuADA2: 49661%
  half-life longer than the non-PEGylated WT rHuADA2: 4043%
[3]
  Half-life slow (t1/2): 2,790 min
  Percent increase in t1/2 compared to WT ADA2: 4,043%

B2: PEGylated ADA2: ADA2 conjugate that is a PEGylated ADA2 (conjugate, UniProt Q9NZK5 30-511, looked up)
Adenosine deaminase 2: IDETRAHLLLKEKMMRLGGRLVLNTKEELANERLMTLKIAEMKEAMRTLIFPPSMHFFQAKHLIERSQVFNILRMMPKGAALHLHDIGIVTMDWLVRNVTYRPHCHICFTPRGIMQFRFAHPTPRPSEKCSKWILLEDYRKRVQNVTEFDDSLLRNFTLVTQHPEVIYTNQNVVWSKFETIFFTISGLIHYAPVFRDYVFRSMQEFYEDNVLYMEIRARLLPVYELSGEHHDEEWSVKTYQEVAQKFVETHPEFIGIKIIYSDHRSKDVAVIAESIRMAMGLRIKFPTVVAGFDLVGHEDTGHSLHDYKEALMIPAKDGVKLPYFFHAGETDWQGTSIDRNILDALMLNTTRIGHGFALSKHPAVRTYSWKKDIPIEVCPISNQVLKLVSDLRNHPVATLMATGHPMVISSDDPAMFGAKGLSYDFYEVFMGIGGMKADLRTLKQLAMNSIKYSTLLESEKNTFMEIWKKRWDKFIADVATK
modifications: PEG
[4]
  heparin binding compared to the corresponding non-PEGylated ADA2: reduced heparin binding
